In patent publication US20170334973A1 (INTEGRATED BIOTHERAPEUTICS, published 2017):

T1: SUDV VLP (Sudan virus (SUDV), UniProt Q66814 33-676)
T1 sequence: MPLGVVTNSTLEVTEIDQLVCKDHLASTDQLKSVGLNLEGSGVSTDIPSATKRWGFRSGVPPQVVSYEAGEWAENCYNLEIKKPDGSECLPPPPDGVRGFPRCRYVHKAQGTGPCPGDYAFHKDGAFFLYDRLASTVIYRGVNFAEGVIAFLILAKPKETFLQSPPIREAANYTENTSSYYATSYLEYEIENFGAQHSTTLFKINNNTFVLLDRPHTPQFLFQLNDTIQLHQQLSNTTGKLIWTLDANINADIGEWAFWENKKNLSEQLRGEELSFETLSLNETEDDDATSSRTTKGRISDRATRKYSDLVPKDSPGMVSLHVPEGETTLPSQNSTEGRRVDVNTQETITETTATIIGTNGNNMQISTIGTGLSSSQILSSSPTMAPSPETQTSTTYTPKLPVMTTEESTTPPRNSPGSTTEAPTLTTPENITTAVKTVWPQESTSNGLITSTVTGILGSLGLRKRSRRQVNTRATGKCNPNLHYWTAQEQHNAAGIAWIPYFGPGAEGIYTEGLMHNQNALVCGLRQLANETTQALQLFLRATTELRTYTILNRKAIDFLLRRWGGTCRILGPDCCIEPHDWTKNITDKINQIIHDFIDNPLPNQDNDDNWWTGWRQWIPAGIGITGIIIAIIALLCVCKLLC

T2: EBOV VLP (Ebola virus (EBOV), UniProt Q05320 33-676)
T2 sequence: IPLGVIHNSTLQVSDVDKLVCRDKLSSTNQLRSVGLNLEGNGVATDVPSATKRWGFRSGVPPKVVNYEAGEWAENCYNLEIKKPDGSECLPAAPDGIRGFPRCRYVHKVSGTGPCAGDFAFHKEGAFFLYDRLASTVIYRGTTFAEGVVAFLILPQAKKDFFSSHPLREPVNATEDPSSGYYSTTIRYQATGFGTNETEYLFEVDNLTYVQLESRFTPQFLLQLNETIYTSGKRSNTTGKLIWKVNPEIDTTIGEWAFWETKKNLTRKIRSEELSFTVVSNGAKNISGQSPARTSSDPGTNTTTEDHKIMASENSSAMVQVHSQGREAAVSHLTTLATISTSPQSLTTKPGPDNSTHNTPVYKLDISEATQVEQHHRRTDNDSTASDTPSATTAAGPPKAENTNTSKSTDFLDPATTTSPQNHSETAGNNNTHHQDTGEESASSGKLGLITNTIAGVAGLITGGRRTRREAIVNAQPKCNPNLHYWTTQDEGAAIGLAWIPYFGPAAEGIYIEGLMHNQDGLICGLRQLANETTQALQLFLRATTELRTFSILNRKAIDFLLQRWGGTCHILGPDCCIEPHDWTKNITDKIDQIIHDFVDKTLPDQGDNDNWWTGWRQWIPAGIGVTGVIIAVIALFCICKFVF


Columns and labels:
[1] = biological target: T1, SUDV VLP; experiment: ELISA
[2] = biological target: T2, EBOV VLP; experiment: ELISA

Binder	EC50 [1]	EC50 [2]
FVM04 (antibody, V domains shown) VH: EVQLVQSGGGLVQPGGSMRLSCEASGLSLSDYFMHWVRQAQGKGLEWIGLIQTKAFTYKTEYPAAVKGRFTISRDDSKNTLYLQMSSLKPEDTALYYCIAVTPDFYYWGQGVLVTVSS VL: DVVMTQSPSFLSASVGDRVTITCRASQDITINLNWFQHKPGKAPKRLIYVASRLERGVPSRFSGSGSGTEFTLTISSLQPEDFATYYCQQYNNYPLTFGPGTKLDIKR	0.193 nM	0.306 nM
FVM05 (antibody, V domains shown) VH: QVQLQESGPGLVKPSETLSLTCAVSGFSISSGYGWSWIRQPPGKGLEWIGYIGGSSGSTSYNPSLKSRVTLSADTSKNQFSLKLSSVTAADTAVYYCARRYSSYRSWFDVWGPGVLVTVSS VL: SSGLTQPRSVSVSPGQTARITCGGDNIGSKSVHWYQQKPPQAPVLVIYADSERPSGIPERFSGSNSGNTATLTISGVEAGDEADYYCQVWDSSSDHWVFGGGTRLTVL	–	18 nM
FVM29 (antibody, V domains shown) VH: EVQLVQSGAEVKRPGESLKISCQTSGNSFTNNWISWVRQMPGKGLEWMGAIDPSDSETRYSPSFQGQVTISADKSINTAYLQWSSLKASDTATYYCVKGSETWGQGVLVTVSS VL: QPVLTQPASLSASPGASASLTCTFSGGINVAGYNILWYQQKAGSPPRYLLRYKSDSTKDQGSGVPSRFSGSKDASANTGILRISGLQSEDEADYYCAIGHSSGWIFGGGTRLTVL	24.1 nM	–
FVM06 (antibody, V domains shown) VH: EVQLVQSGAEVKRPGESLTISCKTSGYSFTNYWISWVRQMPGEGLEWMGAIDPSDSDTRYSPSFQGQVTMSADKSITTAYLQWSSLKASDTATYYCVKGSETWGQGVLVTVSS VL: QPVLTQPASLSASPGASASLTCTFSGGINVAGYNILWYQQKAGSPPRYLLRYKSDSTKDQGSGVPSRFSGSKDASANTGILRISGLQSEDEADYYCAIGHSSGWIFGGGTRLTVL	0.213 nM	0.215 nM
FVM27 (antibody, V domains shown) VH: EVQLVQSGAEVKRPGESLKISCKTSGYSFASSWISWVRQMPGKGLEWMGAIDPSDSATRYSPSFQGQVTISADKSISTAYLQWSSLKASDTATYYCVKGSETWGQGVLVTVSS VL: QPVLTQPASLSASPGASASLTCTFSGGINVAGYNILWYQQKAGSPPRYLLRYKSDSTKDQGSGVPSRFSGSKDASANTGILRISGLQSEDEADYYCAIGHSSGWIFGGGTRLIVL	0.12 nM	0.233 nM
FVM07 (antibody, V domains shown) VH: EVQLVQSGAEVKRPGESLTISCKTSGYSFTDSWIGWVRQMPGKGLEWMGSIYPGDSDTKYNPSFQGHVTISADKSISTTYLQWSSLKASDTATYYCVAREAYWGQGVLVTVSS VL: QPVLTQPASLSASPGASASLTCTFSGGINVAGYHIFWYQQKPGSPPRYLLRYKSDSDKGQGSGVPSRFSGSKDASANTGILRISGLQSEDEADYYCAIGHSSGVLFGGGTRLTVL	18.2 nM	1.71 nM
FVM08 (antibody, V domains shown) VH: EVQLVQSGAEVKRPGESLTISCKTSGYSFTDSWVAWVRQMPGKGLEWMGSIYPGDSDTRYNPSFEGQVTISADKSISTTYLQWSSLRASDTATYYCVKGADDWGQGVLVTVSS VL: QPVLTQPASLSASPGASASLTCTFSGGINVAGYNILWYQQKAGSPPRYLLRYKSDSTKDQGSGVPSRFSGSKDASANTGILRISGLQSEDEADYYCAIGHSSGWIFGGGTRLTVL	0.135 nM	0.193 nM
FVM39 (antibody, V domains shown) VH: EVQLVQSGAEVKRPGESLRISCKTSGYSFTDSWISWVRQMPGKGLEWLGSIYPGDSETKYNPSFQGHVTISADKSVTTTYLKWSSLKASDTATYYCVKGSETWGQGVLVTVSS VL: QPVLTQPASLSASPGASASLTCTFSGGINVAGYNILWYQQKAGSPPRYLLRYKSDSTKDQGSGVPSRFSGSKDASANTGILRISGLQSEDEADYYCAIGHSSGWIFGGGTRLTVL	0.047 nM	0.08 nM
FVM11 (antibody, V domains shown) VH: EVQLVQSGAEVKRPGESLTISCKTSGYSFTDSWVAWVRQMPGKGLEWLGSIYPGDSETKYNPSFQGHVTISADKSVTTTYLKWSSLKASDTATYYCVKGSETWGQGVLVTVSS VL: NFMLTQPASLSASPGASASLTCTFSGGINVAGYNILWYQQKAGSPPRYLLRYKSDSTKDQGSGVPSRFSGSKDASANTGILRISGLQSEDEADYYCAIGHSSGWIFGGGTRLTVL	0.189 nM	0.219 nM
FVM14 (antibody, V domains shown) VH: EVQLVQSGAEVKRPGESLKISCQTSGYSFTSTWITWVRQMPGKGLEWLGSIYPGDSETKYNPSFQGHVTISADKSISTTYLQWNSLKASDTATYYCVKGSETWGQGVLVTVSS VL: QAVVTQPASLSASPGASASLTCTFSGGINVAGYNILWYQQKAGSPPRYLLRYKSDSTKDQGSGVPSRFSGSKDASANTGILRISGLQSEDEADYYCAIGHSSGWIFGGGTRLTVL	0.157 nM	0.78 nM
FVM15 (antibody, V domains shown) VH: QVQLVQSGAEVKRPGESLRISCKTSGYTFTDYWIAWVRQMPGKGLEWMGSIYPGDSETKYNPSFQGHVTISADKSVTTTYLKWSRLKASDTATYYCVKGSETWGQGVLVTVSS VL: QPVLTQPASLSASPGASASLTCTFSGGINVAGYNILWYQQKAGSPPRYLLRYKSDSTKDQGSGVPSRFSGSKDASANTGILRISGLQSEDEADYYCAIGHSSGWIFGGGTRLTVL	0.129 nM	0.151 nM
FVM16 (antibody, V domains shown) VH: EVQLVQSGAEVKRPGESLKISCRTSGYSFTSTWINWVRQMPGKGLEWLGSIYPGDSETKYNPSFQGHVTISADKSVTTTYLKWSSLKASDTATYYCVKGSETWGQGVLVTVSS VL: KPMLTQPASLSASPGASASLTCTFSGGINVAGYNILWYQQKAGSPPRYLLRYKSDSTKDQGSGVPSRFSGSKDASANTGILRISGLQSEDEADYYCAIGHSSGWVFGGGTRLTVL	1.43 nM	0.655 nM
FVM22 (antibody, V domains shown) VH: EVQLVQSGAEVKRPGESLTISCKTSGYSFTDSWVAWVRQMPGKGLEWLGSIYPGDSETKYNPSFQGHVTISADKSISTAYLQWSSLKASDTATYYCAKGSETWGQGVLVTVSS VL: SSGLTQPASLSASPGASASLTCTFSGGINVAGYNILWYQQKAGSPPRYLLRYKSDSTKDQGSGVPSRFSGSKDASANTGILRISGLQSEDEADYYCAIGHSSGWIFGGGTRLTVL	0.173 nM	0.253 nM
FVM26 (antibody, V domains shown) VH: QVQLVQSGAEVKRPGESLRISCKTSGYTFTDYWIAWVRQMPGKGLEWMGSIYPGDSETKYNPSFQGHVTISADKSVTTTYLKWSRLKASDTATYYCVKGSETWGQGVLVTVSS VL: QPVLTQPASLSASPGASASLTCTFSGGINVAGYNILWYQQKAGSPPRYLLRYKSDSTKDQGSGVPSRFSGSKDASANTGILRISGLQSEDEADYYCAIGHSSGWIFGGGTRLTVL	0.153 nM	0.26 nM
FVM31 (antibody, V domains shown) VH: QVQLVQSGAEVKRPGESLTISCKTSGYSFTDSWVAWVRQMPGKGLEWLGSIYPGDSDARYNPSFQGHVTISADTSVTTTYLKWSSLKASDTATYYCVKGSETWGQGVLVTVSS VL: KPMLTQPASLSASPGASASLTCTFSGGINVAGYNILWYQQKAGSPPRYLLRYKSDSTKDQGSGVPSRFSGSKDASANTGILRISGLQSEDEADYYCAIGHSSGWIFGGGTRLTVL	0.193 nM	0.32 nM
FVM33 (antibody, V domains shown) VH: QVQLVQSGAEVKRPGESLKISCKTSRYSFTSSWIGWVRQMPGKGLEWLGSIYPGDSDTRYNPSFQGHVTISADKSVTTTYLKWSSLKASDTATYYCVKGSETWGQGVLVTVSS VL: QPVLTQPASLSASPGASASLTCTFSGGINVAGYNILWYQQKAGSPPRYLLRYKSDSTKDQGSGVPSRFSGSKDASANTGILRISGLQSEDEADYYCAIGHSSGWIFGGGTRLTVL	0.08 nM	0.173 nM
FVM34 (antibody, V domains shown) VH: EVQLVESGAEVKRPGESLTISCKTSGYSFTDSWVSWVRQMPGKGLEWMGSIYPGDSETKYNPSFQGHVTISADKSVTTTYLKWSSLKASDTATYYCVKGSETWGQGVLVTVSS VL: QPVLTQPASLSASPGASASLTCTFSGGINVAGYYIHWYQQKPGSPPRYLLRYKSDSDKHQGSGVPSRFSGSKDASANTGILRISGLQSEDEADYYCAIGHSSGWVFGGGTRLTVL	0.227 nM	0.193 nM
